Molecular target: SARS-CoV S-6P protein (SARS-CoV; strain of S-6P  …, UniProt P59594, stabilised)
Assay: cryo-EM structure

B1: antigen-binding fragment (Fab) of VacW-209 (Fab, V domains shown)
VH: QVQLVESGGGVVQPGRSLRLSCAASGFTFSSIAMHWVRQAPGKGLEWVAVMSFDGSIKYYGDSVKGRFTISRDNSKSTLYLQMNSLRAEDTAVYYCARGVQGYYDRSGYYNLDYNYGMDVWGQGTTVTVSS
VL: QSVLTQPPSVSGAPGQRVTISCTGSSSNIGAGYDVHWYQQLPGTAPKLLIYGNSNRPSGVPDRFSGSKSGTSASLAITGLQAEDEADYYCQSYDSSLSGWVFGGGTKLTVL
  stoichiometry N: 3 Fabs per spike trimer

Reference: doi:10.1101/2022.01.19.476892 (bioRxiv, 2022)
